According to the Immune Epitope Database (IEDB):

How the values were obtained:
HLA-A*02:01 [1] = assay: IEDB peptide-MHC binding, purified MHC/competitive/fluorescence; ≥ and ≤ were set here for values at or beyond the usual limits of such assays; details: source organism: Variola virus
HLA-B*07:02 [2] = assay: as above; details: source organism: Variola virus
HLA-A*11:01 [3] = assay: as above; details: source organism: Variola virus
HLA-C*15:02 = assay: IEDB peptide-MHC binding, purified MHC/direct/fluorescence; filed as Kd, often an IC50 or EC50 that approximates it; ≥ and ≤ were set here for values at or beyond the usual limits of such assays; details: source organism: dengue virus type 1
HLA-B*46:01 = assay: as above
HLA-C*14:02 = assay: as above; details: source organism: dengue virus type 1
HLA-B*15:02 = assay: as above
HLA-A*26:01 = assay: IEDB peptide-MHC binding, purified MHC/competitive/radioactivity; filed as Kd, often an IC50 or EC50 that approximates it; ≥ and ≤ were set here for values at or beyond the usual limits of such assays; details: source organism: Dengue virus 1 Brazil/97-11/1997
HLA-A*02:01 [4] = assay: IEDB peptide-MHC binding, purified MHC/competitive/radioactivity; ≥ and ≤ were set here for values at or beyond the usual limits of such assays; details: source organism: Hepatitis B virus subtype ayw
HLA-A*11:01 [5] = assay: IEDB peptide-MHC binding, purified MHC/competitive/fluorescence; filed as Kd, often an IC50 or EC50 that approximates it; ≥ and ≤ were set here for values at or beyond the usual limits of such assays; details: source organism: Dengue virus 2 Thailand/NGS-C/1944
HLA-A*31:01 [6] = assay: as above; details: source organism: Dengue virus 2 Thailand/NGS-C/1944
HLA-B*15:17 = assay: IEDB peptide-MHC binding, purified MHC/direct/fluorescence; filed as Kd, often an IC50 or EC50 that approximates it; ≥ and ≤ were set here for values at or beyond the usual limits of such assays; details: source organism: Marburg virus - Musoke, Kenya, 1980
HLA-B*48:01 = assay: as above; details: source organism: Marburg virus - Musoke, Kenya, 1980
HLA-A*69:01 = assay: as above; details: source organism: Marburg virus - Musoke, Kenya, 1980
HLA-A*02:01 [7] = assay: as above; details: source organism: Marburg virus - Musoke, Kenya, 1980
HLA-B*57:01 = assay: as above; details: source organism: Marburg virus - Musoke, Kenya, 1980
HLA-B*07:02 [8] = assay: as above; details: source organism: Marburg virus - Musoke, Kenya, 1980
HLA-A*11:01 [9] = assay: as above; details: source organism: Marburg virus - Musoke, Kenya, 1980
HLA-B*27:05 = assay: as above; details: source organism: Marburg virus - Musoke, Kenya, 1980
HLA-B*08:01 = assay: as above; details: source organism: Orthomarburgvirus marburgense
HLA-A*68:02 = assay: as above; details: source organism: Marburg virus - Musoke, Kenya, 1980
HLA-B*15:01 = assay: as above; details: source organism: Marburg virus - Musoke, Kenya, 1980
HLA-A*31:01 [10] = assay: as above; details: source organism: Marburg virus - Musoke, Kenya, 1980
HLA-A*01:01 = assay: as above; details: source organism: Marburg virus - Musoke, Kenya, 1980
HLA-B*58:01 = assay: as above; details: source organism: Marburg virus - Musoke, Kenya, 1980
HLA-A*26:02 = assay: IEDB peptide-MHC binding, purified MHC/competitive/fluorescence; filed as Kd, often an IC50 or EC50 that approximates it; ≥ and ≤ were set here for values at or beyond the usual limits of such assays; details: source organism: Orthomarburgvirus marburgense

## RPVILSLPR
HLA-A*02:01 [1]
  IC50: ≥ 187 µM
HLA-B*07:02 [2]
  IC50: 15 µM
HLA-A*11:01 [3]
  IC50: ≥ 122 µM

## YLAGAGLAF
HLA-C*15:02
  Kd: ≥ 20 µM
HLA-B*46:01; source organism: Dengue virus 1 Singapore/S275/1990
  Kd: 0.118 µM
HLA-C*14:02
  Kd: 0.046 µM
HLA-B*15:02; source organism: dengue virus type 4
  Kd: 0.003 µM
HLA-A*26:01
  Kd: 0.401 µM

## NLYVSLLLL
HLA-A*02:01 [4]
  IC50: 0.077 µM

## KTFVDLMRR
HLA-A*11:01 [5]
  Kd: 0.0123 µM
HLA-A*31:01 [6]
  Kd: 0.00102 µM

## NQQVTNSKY
HLA-B*15:17
  Kd: ≥ 20 µM
HLA-B*48:01
  Kd: ≥ 20 µM
HLA-A*69:01
  Kd: ≥ 20 µM
HLA-A*02:01 [7]
  Kd: ≥ 20 µM
HLA-B*57:01
  Kd: ≥ 20 µM
HLA-B*07:02 [8]
  Kd: ≥ 20 µM
HLA-A*11:01 [9]
  Kd: ≥ 20 µM
HLA-B*46:01; source organism: Marburg virus - Musoke, Kenya, 1980
  Kd: ≥ 20 µM
HLA-B*27:05
  Kd: ≥ 20 µM
HLA-B*08:01
  Kd: ≥ 20 µM
HLA-A*68:02
  Kd: ≥ 20 µM
HLA-B*15:01
  Kd: 0.0803 µM
HLA-B*15:02; source organism: Orthomarburgvirus marburgense
  Kd: 0.087 µM
HLA-A*31:01 [10]
  Kd: ≥ 20 µM
HLA-A*01:01
  Kd: ≥ 20 µM
HLA-B*58:01
  Kd: ≥ 20 µM
HLA-A*26:02
  Kd: ≥ 20 µM
